The text below walks through data of patent US20150139982A1 (ALETHIA BIOTHERAPEUTICS, published 2015).

Experiment [1] concerns the target T1, Fc-Siglec-15 fusion protein (Homo sapiens (Human), UniProt Q6ZMC9 20-259, limits assumed).
T1 construct: also called recombinant Siglec-15; purified Fc-Siglec-15; not shown: Fc region
T1 sequence: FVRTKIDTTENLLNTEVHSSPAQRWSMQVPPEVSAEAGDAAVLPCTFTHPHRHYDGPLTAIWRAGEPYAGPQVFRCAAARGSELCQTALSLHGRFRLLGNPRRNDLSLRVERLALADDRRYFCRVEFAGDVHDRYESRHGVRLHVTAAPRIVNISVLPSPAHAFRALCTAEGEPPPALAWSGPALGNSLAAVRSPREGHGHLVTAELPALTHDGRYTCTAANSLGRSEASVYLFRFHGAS
Nature of the experiment: SPR, Fc-Siglec-15 immobilized, antibody injected at 100 to 1.23 nM, 1:1 fit. As to the method:
(§1) FIG. 12. SPR chromatograms illustrating the differences in binding parameters between the humanized 25E9 L1H1 IgG1 (left panel) and the humanized 25E9 L1H1 IgG2 (right panel). Purified Fc-Siglec-15 was immobilized (150RU) and humanized 25E9 was injected at the indicated concentrations (100 nM, 33.3 nM, 11.1 nM, 3.70 nM and 1.23 nM). The curves were fit with a 1:1 ratio.
(§2) More particularly, we compared the binding activity of the humanized 25E9 L1H1 IgG1 (the L1H1 IgG1 variant) with the humanized 25E9 L1H1 IgG2 (the L1H1 IgG2 variant) using SPR. The analysis was conducted using methods similar to what was described above (see Example 6). In this instance, Fc-Siglec-15 was immobilized on the chip and decreasing concentrations of the 25E9 antibody variants were injected (100 nM, 33.3 nM, 11.1 nM, 3.70 nM and 1.23 nM). […] The difference in binding was mostly contributed by a slower off-rate (kd) of the IgG1 compared to the IgG2.
For orientation: In SPR one partner is held on a chip, and binding of the other changes the refractive index at the surface.

Experiment [2] has as its target T1, Fc-Siglec-15 fusion protein. Nature of the experiment: SPR, Fc-Siglec-15 immobilized (150 RU), antibody injected at 100, 33.3, 11.1, 3.70 and 1.23 nM, 1:1 fit. The protocol:
as §1, §2

Experiment [3] deals with T2, human Siglec-15 (human, UniProt Q6ZMC9 20-328).
T2 construct: also called h-Siglec-15; CD33L3
T2 sequence: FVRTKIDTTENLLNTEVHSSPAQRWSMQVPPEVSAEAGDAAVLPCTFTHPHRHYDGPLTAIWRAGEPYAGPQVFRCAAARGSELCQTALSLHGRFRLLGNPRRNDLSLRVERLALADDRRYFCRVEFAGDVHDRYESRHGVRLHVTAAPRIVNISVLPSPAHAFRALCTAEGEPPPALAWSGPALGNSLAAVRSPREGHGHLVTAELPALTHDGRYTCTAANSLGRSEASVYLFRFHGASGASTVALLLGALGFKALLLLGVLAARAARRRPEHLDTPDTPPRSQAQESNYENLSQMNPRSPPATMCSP
Description: flow cytometry on 293-6E cells transfected with human Siglec-15. As to the method:
(§3) We tested the ability of the humanized antibodies to interact with human Siglec-15 expressed on the surface of cultured cells. […] Twenty-four hours later, the cells were harvested, counted and 1×10⁵ cells were incubated with increasing concentrations of the humanized IgG1 variant of 25E9 for 1 hour at 4 C. Following a washing step with cold PBS, bound 25E9 was detected with an anti-human kappa light chain IgG conjugated to FITC. Fluorescently labeled cells were injected into a flow cytometer to measure the fluorescence signal on the surface of intact cells. […] The average KD was in the low nanomolar range. Furthermore, the binding parameters were very similar in the presence of the humanized 25E9 L1H1 IgG1 variant produced in either CHO cells or 293 cells. […] Similar results were obtained with other 25E9 humanized IgG1 antibody variants (the L1H2 IgG1, the L1H3 IgG1, the L1H4 IgG1 and, the L1H1 IgG2) or with the humanized 25D8 IgG2 antibody.
Background: A flow cytometer gives signals particle by particle.

Experiment [4] has as its target T2, human Siglec-15. Nature of the experiment: flow cytometry on 293-6E cells transfected with human Siglec-15 cDNA. The text has this: The average KD was in the low nanomolar range. Furthermore, the binding parameters were very similar in the presence of the humanized 25E9 L1H1 IgG1 variant produced in either CHO cells or 293 cells. […] Similar results were obtained with other 25E9 humanized IgG1 antibody variants (the L1H2 IgG1, the L1H3 IgG1, the L1H4 IgG1 and, the L1H1 IgG2) or with the humanized 25D8 IgG2 antibody.
Experiments were undertaken to examine the feasibility of targeting Siglec-15-expressing cells with an ADC. The humanized 25E9 L1H1 IgG1 variant was conjugated to a payload that is toxic to proliferating cells as well as non-proliferating or fully differentiated cells, in particular osteoclasts. The humanized 25E9 L1H1 IgG1 conjugated antibody was designated 25E9-ADC. Since the conjugation might affect the ability of 25E9 to interact with native Siglec-15, flow cytometry was conducted to measure the binding of the 25E9-ADC to Siglec-15 expressing cells.

The target of experiment [5] is T2, human Siglec-15. Nature of the experiment: flow cytometry titration (0 to 4 µg/ml) on 293-6E cells transfected with human Siglec-15, detected with FITC anti-human kappa light chain; antibody made in 293 cells. The protocol: as §3
The target of experiment [6] is T1, Fc-Siglec-15 fusion protein. Description: SPR, Fc-Siglec-15 immobilized, antibody injected. As to the method:
as §1, §2

Experiment [7] concerns the target T2, human Siglec-15. Nature of the experiment: flow cytometry titration (0 to 4 µg/ml) on 293-6E cells transfected with human Siglec-15, detected with FITC anti-human kappa light chain; antibody made in CHO cells. As to the method: as §3
Experiment [8] has as its target T2, human Siglec-15. Description: cell-based or functional assay.

Where a chain is given by its changes, count along the chain named.

As a reminder, the Kd is the concentration at which binding is half-saturated. A lower Kd goes with higher affinity. Broadly, the koff is the first-order rate constant of dissociation. A low value points to a long-lived complex. By kon is commonly meant the rate constant with which the complex forms. Read a low kon as slower complex formation. What is called EC50 (read off the curve) is the midpoint of the concentration-response curve. The low end stands for higher potency in that assay, the high end for lower potency in that assay.

B1: humanized 25E9 L1H1 IgG2 variant (antibody)
light: DIVMTQSPLSLPVTPGEPASISCRSTKSLLHSNGNTYLYWYLQKPGQSPQLLIYRMSNLASGVPDRFSGSGSGTDFTLKISRVEAEDVGVYYCMQHLEYPFTFGGGTKVEIKRTVAAPSVFIFPPSDEQLKSGTASVVCLLNNFYPREAKVQWKVDNALQSGNSQESVTEQDSKDSTYSLSSTLTLSKADYEKHKVYACEVTHQGLSSPVTKSFNRGEC
heavy: EIQLQQSGAEVKKPGSSVKVSCKASGYTFTDYDMHWVRQAPGQGLEWMGTIDPETGGTAYNQKFKGRVTITADKSTSTAYMELSSLRSEDTAVYYCTSFYYTYSNYDVGFAYWGQGTLVTVSSASTKGPSVFPLAPCSRSTSESTAALGCLVKDYFPEPVTVSWNSGALTSGVHTFPAVLQSSGLYSLSSVVTVPSSNFGTQTYTCNVDHKPSNTKVDKTVERKCCVECPPCPAPPVAGPSVFLFPPKPKDTLMISRTPEVTCVVVDVSHEDPEVQFNWYVDGVEVHNAKTKPREEQFNSTFRVVSVLTVVHQDWLNGKEYKCKVSNKGLPAPIEKTISKTKGQPREPQVYTLPPSREEMTKNQVSLTCLVKGFYPSDIAVEWESNGQPENNYKTTPPMLDSDGSFFLYSKLTVDKSRWQQGNVFSCSVMHEALHNHYTQKSLSLSPGK
notes: Full-length human kappa / human IgG2; also called humanized 25E9 IgG2
In the case of B1, in experiment [1], the dissociation constant (Kd) came out at 1.26 nM. For the same molecule, in experiment [2], the koff amounted to 0.000655 s⁻¹ and the on-rate (kon) came to 520000 M⁻¹ s⁻¹.

B2: humanized 25E9 L1H2 IgG1 (antibody, V domains shown)
VH: EIQLQQSGAEVKKPGSSVKVSCKASGYTFTDYDMHWVRQAPGQGLEWIGTIDPETGGTAYNQKFKGRATLTADRSTSTAYMELSSLRSEDTAVYYCTSFYYTYSNYDVGFAYWGQGTLVTVSS
VL: DIVMTQSPLSLPVTPGEPASISCRSTKSLLHSNGNTYLYWYLQKPGQSPQLLIYRMSNLASGVPDRFSGSGSGTDFTLKISRVEAEDVGVYYCMQHLEYPFTFGGGTKVEIKR
notes: The residue ranges are those stated in CLM-00047 (item b)
Consider B2, for which, in experiment [3], the binding result is “binds”.

B3: humanized 25D8 IgG2 antibody (antibody, V domains shown)
VH: QVQLQQSGAEVKKPGSSVKVSCKASGYTFTSYWMHWVRQAPGQGLEWMGLINPSNARTNYNEKFNTRVTITADKSTSTAYMELSSLRSEDTAVYYCARGGDGDYFDYWGQGTTVTVSS
VL: B2 VL with S7T, T26S, N35I, R55Q, M94A, H96N, Y99L, F101Y
notes: Human kappa / human IgG2; also called humanized full-length IgG2 25D8
On to B3, for which the binding result in experiment [3] is recorded as “binds”.

B4: humanized 25E9 L1H4 IgG1 (antibody, V domains shown)
VH: B2 VH with R38K, Q43H, R67K, R87T
VL: B2 VL
notes: The residue ranges are those stated in CLM-00047 (item d)
For B4, in experiment [3], the binding result is “binds”.

B5: 25E9-ADC (humanized 25E9 L1H1 IgG1 conjugated antibody) (antibody)
light: B1 light
heavy: not shown
modifications: conjugated to a toxic payload; payload, linker and attachment residues not stated
As to B5, the concentration for a half-maximal effect (EC50 (read off the curve)) in experiment [4] was around 0.2 µg/mL.

B6: humanized 25E9 L1H3 IgG1 (antibody, V domains shown)
VH: B2 VH with R38K, R67K
VL: B2 VL
notes: The residue ranges are those stated in CLM-00047 (item c)
With B6, the binding result in experiment [3] is “binds”.

B7: humanized 25E9 L1H1 IgG1 variant (antibody)
light: B1 light
heavy: not shown
notes: Full-length human kappa / human IgG1; Produced in CHO or 293 cells; also called humanized IgG1 variant of 25E9; unconjugated 25E9
For B7, in experiment [4], the “EC50 (read off the curve)” value is around 0.1 µg/mL. Besides, the Kd in experiment [5] was found to be 1.9 nM; in experiment [1] it was 0.164 nM; in experiment [7], 5.7 nM. The same molecule registered an off-rate constant (koff) in experiment [2] of 0.000151 s⁻¹. In experiment [2], this molecule displayed a kon of 921000 M⁻¹ s⁻¹. Moreover, the “fold higher affinity than the humanized 25E9 L1H1 IgG2 variant” value in experiment [6] was around 10 fold. Further, the “fold difference in potency against the humanized 25E9 L1H1 IgG2 variant (osteoclast differentiation)” value in experiment [8] is around 100 fold.
